From the Human Domainome abundance scans (Beltran et al. 2025) come the findings set out here.

± gives the uncertainty stated by the source.

A short description of this data set: abundance fitness (aPCA) (normalised: wild type 0, dead -1); higher = more abundant; growth selection in yeast, the domain comes from the species named. The following applies: Homo sapiens.
Substance “Lipoamide acyltransferase component of branched-chain alpha-keto acid dehydrogenase complex, mitochondrial T171W, P11182” returned an abundance fitness of -0.49 ± 0.075.

Consider “Lipoamide acyltransferase component of branched-chain alpha-keto acid dehydrogenase complex, mitochondrial T171Y, P11182”, for which the abundance fitness was -0.022 ± 0.062.

“Lipoamide acyltransferase component of branched-chain alpha-keto acid dehydrogenase complex, mitochondrial T174A, P11182” displayed an abundance fitness of -0.347 ± 0.066.

In the case of “Lipoamide acyltransferase component of branched-chain alpha-keto acid dehydrogenase complex, mitochondrial T174C, P11182”, the abundance fitness is -0.141 ± 0.081.

Substance “Lipoamide acyltransferase component of branched-chain alpha-keto acid dehydrogenase complex, mitochondrial T174D, P11182” had an abundance fitness of 0.003 ± 0.058.

“Lipoamide acyltransferase component of branched-chain alpha-keto acid dehydrogenase complex, mitochondrial T174E, P11182” gave an abundance fitness of -0.389 ± 0.053.

As for “Lipoamide acyltransferase component of branched-chain alpha-keto acid dehydrogenase complex, mitochondrial T174F, P11182”, the abundance fitness was -0.403 ± 0.075.

For the substance “Lipoamide acyltransferase component of branched-chain alpha-keto acid dehydrogenase complex, mitochondrial T174G, P11182”, the abundance fitness was -0.39 ± 0.038.

As for “Lipoamide acyltransferase component of branched-chain alpha-keto acid dehydrogenase complex, mitochondrial T174H, P11182”, the abundance fitness is -0.206 ± 0.069.

With “Lipoamide acyltransferase component of branched-chain alpha-keto acid dehydrogenase complex, mitochondrial T174I, P11182”, the abundance fitness is -0.601 ± 0.11.

The substance “Lipoamide acyltransferase component of branched-chain alpha-keto acid dehydrogenase complex, mitochondrial T174K, P11182” displayed an abundance fitness of -0.379 ± 0.063.

In turn, “Lipoamide acyltransferase component of branched-chain alpha-keto acid dehydrogenase complex, mitochondrial T174L, P11182” had an abundance fitness of -0.724 ± 0.059.

In turn, “Lipoamide acyltransferase component of branched-chain alpha-keto acid dehydrogenase complex, mitochondrial T174M, P11182” displayed an abundance fitness of -0.643 ± 0.084.

As to “Lipoamide acyltransferase component of branched-chain alpha-keto acid dehydrogenase complex, mitochondrial T174N, P11182”, the abundance fitness is -0.064 ± 0.13.

As for “Lipoamide acyltransferase component of branched-chain alpha-keto acid dehydrogenase complex, mitochondrial T174V, P11182”, the abundance fitness was -0.773 ± 0.052.

“Lipoamide acyltransferase component of branched-chain alpha-keto acid dehydrogenase complex, mitochondrial T174W, P11182” came in with an abundance fitness of -0.787 ± 0.045.

“Lipoamide acyltransferase component of branched-chain alpha-keto acid dehydrogenase complex, mitochondrial T213C, P11182” registered an abundance fitness of -0.179 ± 0.074.

In turn, “Lipoamide acyltransferase component of branched-chain alpha-keto acid dehydrogenase complex, mitochondrial T213D, P11182” showed an abundance fitness of 0.049 ± 0.058.

“Lipoamide acyltransferase component of branched-chain alpha-keto acid dehydrogenase complex, mitochondrial T213F, P11182” came in with an abundance fitness of -0.222 ± 0.069.

The substance “Lipoamide acyltransferase component of branched-chain alpha-keto acid dehydrogenase complex, mitochondrial T213G, P11182” gave an abundance fitness of 0.093 ± 0.036.

“Lipoamide acyltransferase component of branched-chain alpha-keto acid dehydrogenase complex, mitochondrial T213H, P11182” registered an abundance fitness of -0.062 ± 0.058.

“Lipoamide acyltransferase component of branched-chain alpha-keto acid dehydrogenase complex, mitochondrial T213K, P11182” came in with an abundance fitness of 0.145 ± 0.071.

On to “Lipoamide acyltransferase component of branched-chain alpha-keto acid dehydrogenase complex, mitochondrial T213L, P11182”, for which the abundance fitness was -0.185 ± 0.056.

“Lipoamide acyltransferase component of branched-chain alpha-keto acid dehydrogenase complex, mitochondrial T213M, P11182” showed an abundance fitness of -0.122 ± 0.097.

The substance “Lipoamide acyltransferase component of branched-chain alpha-keto acid dehydrogenase complex, mitochondrial T213P, P11182” had an abundance fitness of -0.075 ± 0.065.

“Lipoamide acyltransferase component of branched-chain alpha-keto acid dehydrogenase complex, mitochondrial T213Q, P11182” yielded an abundance fitness of 0.005 ± 0.047.

Substance “Lipoamide acyltransferase component of branched-chain alpha-keto acid dehydrogenase complex, mitochondrial T213R, P11182” showed an abundance fitness of 0.066 ± 0.045.

In turn, “Lipoamide acyltransferase component of branched-chain alpha-keto acid dehydrogenase complex, mitochondrial T213S, P11182” displayed an abundance fitness of -0.008 ± 0.046.

Turning to “Lipoamide acyltransferase component of branched-chain alpha-keto acid dehydrogenase complex, mitochondrial T213V, P11182”, the abundance fitness is -0.028 ± 0.048.

For the substance “Lipoamide acyltransferase component of branched-chain alpha-keto acid dehydrogenase complex, mitochondrial T213W, P11182”, the abundance fitness was -0.247 ± 0.053.

The substance “Lipoamide acyltransferase component of branched-chain alpha-keto acid dehydrogenase complex, mitochondrial T213Y, P11182” gave an abundance fitness of -0.386 ± 0.15.

In the case of “Lipoamide acyltransferase component of branched-chain alpha-keto acid dehydrogenase complex, mitochondrial V177A, P11182”, the abundance fitness is 0.038 ± 0.04.

For “Lipoamide acyltransferase component of branched-chain alpha-keto acid dehydrogenase complex, mitochondrial V177D, P11182”, the abundance fitness is -0.417 ± 0.073.

With “Lipoamide acyltransferase component of branched-chain alpha-keto acid dehydrogenase complex, mitochondrial V177E, P11182”, the abundance fitness was -0.385 ± 0.049.

Substance “Lipoamide acyltransferase component of branched-chain alpha-keto acid dehydrogenase complex, mitochondrial V177F, P11182” showed an abundance fitness of -0.818 ± 0.076.

Substance “Lipoamide acyltransferase component of branched-chain alpha-keto acid dehydrogenase complex, mitochondrial V177G, P11182” registered an abundance fitness of -0.289 ± 0.038.

Regarding “Lipoamide acyltransferase component of branched-chain alpha-keto acid dehydrogenase complex, mitochondrial V177H, P11182”, the abundance fitness was -0.547 ± 0.15.

In turn, “Lipoamide acyltransferase component of branched-chain alpha-keto acid dehydrogenase complex, mitochondrial V177I, P11182” registered an abundance fitness of -0.139 ± 0.058.

In the case of “Lipoamide acyltransferase component of branched-chain alpha-keto acid dehydrogenase complex, mitochondrial V177L, P11182”, the abundance fitness was -0.321 ± 0.04.

“Lipoamide acyltransferase component of branched-chain alpha-keto acid dehydrogenase complex, mitochondrial V177M, P11182” registered an abundance fitness of -0.329 ± 0.078.

In turn, “Lipoamide acyltransferase component of branched-chain alpha-keto acid dehydrogenase complex, mitochondrial V177N, P11182” showed an abundance fitness of -0.742 ± 0.26.

“Lipoamide acyltransferase component of branched-chain alpha-keto acid dehydrogenase complex, mitochondrial V177P, P11182” showed an abundance fitness of -0.64 ± 0.08.

In turn, “Lipoamide acyltransferase component of branched-chain alpha-keto acid dehydrogenase complex, mitochondrial V177R, P11182” returned an abundance fitness of -0.802 ± 0.043.

As for “Lipoamide acyltransferase component of branched-chain alpha-keto acid dehydrogenase complex, mitochondrial V177S, P11182”, the abundance fitness is -0.255 ± 0.045.

“Lipoamide acyltransferase component of branched-chain alpha-keto acid dehydrogenase complex, mitochondrial V177T, P11182” showed an abundance fitness of -0.401 ± 0.06.

Turning to “Lipoamide acyltransferase component of branched-chain alpha-keto acid dehydrogenase complex, mitochondrial V177W, P11182”, the abundance fitness is -0.975 ± 0.14.
